Measured values: patent US20050215478A1, “Amino acid sequences capable of facilitating penetration across a biological barrier” (priority 2002, published 2005)
Several values for one entry are separate records, joined by “and”; a condition that tells them apart may be missing. Identical values can stand only once.

Test: Translocation of ^125I-labeled peptide from mouse intestine loop into blood and organs (Example 1)
Format: in vivo, BALB/c mice
Settings: for recovered cpm/mouse / blood 15′, total cpm in the blood / blood 30′, total cpm in the blood / blood 60′, total cpm in the blood / blood/injected cpm (%), 15′ / blood/injected cpm (%), 30′ / blood/injected cpm (%), 60′ / recovered/injected cpm (%) / Epididymal fat, cpm recovered / brain, cpm recovered / kidney, cpm recovered / liver, cpm recovered / lungs, cpm recovered: Table 2 formulation (PE 6,200), intestinal loop, 224,160 cpm injected per mouse; for recovered cpm/mouse: blood 60′ plus organs; for blood 15′, total cpm in the blood / blood 30′, total cpm in the blood / blood 60′, total cpm in the blood: calculated from 50 μl sample assuming 2 ml blood; for Epididymal fat, cpm recovered / brain, cpm recovered / kidney, cpm recovered / liver, cpm recovered / lungs, cpm recovered: organ removed after 60 min
Description: The tested peptide, representing a penetrating peptide and a radio-labeled probe in a contiguous construct of SEQ ID NO 3 and SEQ ID NO 17, hereby named IBW 002 (Novetide, lot 40139-45, sequence: Ac-NYYDITLALAGICQSARLVQQLAGGGKGGK-NH2 (SEQ ID NO:22), was ^125I-labeled using the Bolton Hunter Reagent (Biochem. J. 133:529-39 (1973)). The labeled peptide was loaded on a Sephadex G10 column, washed with phosphate buffer and eluted with 3M Tiocyanate in DDW+50% n-butanol. The peak, containing 6 fractions, was kept and used for in vivo experiments.
Four male BALB/c mice, 9-10 weeks old, were deprived of food, 18 hours prior to the experiment.
The mice were anesthetized by i.p. injection of 0.05 ml of a mixture of 0.15 ml xylazine+0.85 ml of ketamin. A 2 cm long incision was made along the center of the abdomen, through the skin and abdominal wall. An intestine loop was gently pulled out through the incision and placed on wet gauze beside the animal. The loop remained intact through the entire procedure and was kept wet during the whole time. The tested compound was injected into the loop, 0.2 ml/ mouse, containing around 200,000 cpm, using a 26G needle. Fifteen minutes post injection the tip of the tail was cut and a 50 μl blood sample was drawn into a glass capillary. This was repeated 30 and 60 minutes post injection. The animals were subsequently sacrificed. The following organs were removed: epididymal fat, kidneys, liver, lungs and brain. Radioactivity in each organ and in blood samples was counted. A 5 μl sample of the injected solution was counted to determine the total injected cpm per mouse.
The total radioactive labeling injected per mouse was 224,160 cpm. Total cpm in the blood was calculated based on the 50 μl blood sample drawn out at different time points post injection, in the assumption that total blood volume of each mouse is 2 ml.

[1] = individual mice, listed as 125I-IBW-002

Ac-NYYDITLALAGICQSARLVQQLAGGGKGGK-NH2 (Ac-NYYDITLALAGICQSARLVQQLAGGGKGGK-NH2; also: 125I label) [IBW-002, ^125I-labeled using the Bolton Hunter Reagent for in vivo tests]
recovered cpm/mouse [1]: 41,440 cpm and 66,525 cpm and 61,642 cpm and 82,325 cpm
recovered cpm/mouse (mean of 4 mice): 62,983 cpm
blood 15′, total cpm in the blood [1]: 37,080 cpm and 68,960 cpm and 62,280 cpm and 80,280 cpm
blood 30′, total cpm in the blood [1]: 36,120 cpm and 60,680 cpm and 52,320 cpm and 70,840 cpm
blood 60′, total cpm in the blood [1]: 29,720 cpm and 47,800 cpm and 44,000 cpm and 59,720 cpm
blood 15′, total cpm in the blood (mean of 4 mice): 62,150 cpm
blood 30′, total cpm in the blood (mean of 4 mice): 54,990 cpm
blood 60′, total cpm in the blood (mean of 4 mice): 45,310 cpm
blood/injected cpm (%), 15′ [1]: 16.54% and 30.76% and 27.78% and 35.81%
blood/injected cpm (%), 30′ [1]: 16.11% and 27.07% and 23.34% and 31.60%
blood/injected cpm (%), 60′ [1]: 13.26% and 21.32% and 19.63% and 26.64%
recovered/injected cpm (%) [1]: 18.49% and 29.68% and 27.50% and 36.73%
blood/injected cpm (%), 15′ (mean of 4 mice): 27.73%
blood/injected cpm (%), 30′ (mean of 4 mice): 24.53%
blood/injected cpm (%), 60′ (mean of 4 mice): 20.21%
recovered/injected cpm (%) (mean of 4 mice): 28.10%
Epididymal fat, cpm recovered [1]: 547 cpm and 869 cpm and 973 cpm and 1,174 cpm
brain, cpm recovered [1]: 138 cpm and 190 cpm and 202 cpm and 301 cpm
kidney, cpm recovered [1]: 4,068 cpm and 6,614 cpm and 6,400 cpm and 7,650 cpm
liver, cpm recovered [1]: 6,102 cpm and 9,709 cpm and 8,718 cpm and 11,674 cpm
lungs, cpm recovered [1]: 865 cpm and 1,343 cpm and 1,349 cpm and 1,806 cpm
Epididymal fat, cpm recovered (mean of 4 mice): 891 cpm
brain, cpm recovered (mean of 4 mice): 208 cpm
kidney, cpm recovered (mean of 4 mice): 6,183 cpm
liver, cpm recovered (mean of 4 mice): 9,051 cpm
lungs, cpm recovered (mean of 4 mice): 1,341 cpm
time at which the relative amount in the blood peaked (post-intestinal administration, blood sampled at 15, 30 and 60 min, Table 2 formulation): 15 min
